In the experiment the target is high-affinity non-cleavable CD16 (hnCD16) Fc receptor. As to the kind of experiment: cell-based or functional assay.

In the case of Rituximab (antibody), the % specific cytotoxicity at E:T=1:1 (ADCC against CD19 negative leukemia cells) (% specific cytotoxicity) was found to be 75.6.

The values above are taken from patent US20230390337A1.
